Target: CysLTR2-V2(A)6 L129Q (GFP10 fusion) (UniProt Q9NS75)
Test: FRET or BRET; BRET^2 saturation-binding in live HEK293T cells: 5 ng β-arrestin2-RLuc3 and 0-200 ng receptor-GFP10 DNA per well; unstimulated, or WT with 1 μM LTD4 for 10 min at RT; BRET^2 ratio against normalized GFP10 fluorescence, one-site fit with shared Bmax; constitutive activity from Bmax/Kd, normalized to the fully LTD4-stimulated WT receptor

UniProt Q9NS75, sequence (Q9NS75 other isoform, or with tags, fused parts or gaps L129Q | L129Q): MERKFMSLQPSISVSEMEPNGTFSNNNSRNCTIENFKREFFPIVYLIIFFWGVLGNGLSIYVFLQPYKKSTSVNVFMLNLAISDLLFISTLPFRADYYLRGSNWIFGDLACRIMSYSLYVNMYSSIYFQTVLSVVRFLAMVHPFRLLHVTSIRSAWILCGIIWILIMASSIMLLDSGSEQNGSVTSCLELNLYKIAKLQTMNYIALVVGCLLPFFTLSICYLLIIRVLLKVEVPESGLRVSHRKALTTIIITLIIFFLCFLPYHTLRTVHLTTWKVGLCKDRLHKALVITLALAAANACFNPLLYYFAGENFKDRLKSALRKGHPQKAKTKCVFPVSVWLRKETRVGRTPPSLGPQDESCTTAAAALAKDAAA

Substance: β-arrestin2-RLuc3 (from UniProt P32121 1-409) (natural protein)
- constitutive activity of β-arrestin recruitment (% of LTD4-stimulated WT receptor): 17.8%

Source: paper PMC7948404
